Measurements as given in patent publication US11385226.

Biological target: recombinant Human IL-8 (BD Pharmingen cat #554609) (human) (UniProt P10145)
Test: sandwich immunoassay on Capture Antibody 1 magnetic beads; potentiometric read-out of bound glucose oxidase conjugate after adding glucose; no potential without IL-8

recombinant Human IL-8 (BD Pharmingen cat #554609) (human), sequence (P10145 28-99 limits assumed): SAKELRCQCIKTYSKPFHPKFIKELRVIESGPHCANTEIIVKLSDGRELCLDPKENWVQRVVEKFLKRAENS
Capture Antibody 2, an anti-Mouse α-Human IL-8 Monoclonal Antibody (for ICC, BD Pharmingen cat #550419), conjugated to Glucose Oxidase from Aspergillus niger, sequence (P13006 23-605): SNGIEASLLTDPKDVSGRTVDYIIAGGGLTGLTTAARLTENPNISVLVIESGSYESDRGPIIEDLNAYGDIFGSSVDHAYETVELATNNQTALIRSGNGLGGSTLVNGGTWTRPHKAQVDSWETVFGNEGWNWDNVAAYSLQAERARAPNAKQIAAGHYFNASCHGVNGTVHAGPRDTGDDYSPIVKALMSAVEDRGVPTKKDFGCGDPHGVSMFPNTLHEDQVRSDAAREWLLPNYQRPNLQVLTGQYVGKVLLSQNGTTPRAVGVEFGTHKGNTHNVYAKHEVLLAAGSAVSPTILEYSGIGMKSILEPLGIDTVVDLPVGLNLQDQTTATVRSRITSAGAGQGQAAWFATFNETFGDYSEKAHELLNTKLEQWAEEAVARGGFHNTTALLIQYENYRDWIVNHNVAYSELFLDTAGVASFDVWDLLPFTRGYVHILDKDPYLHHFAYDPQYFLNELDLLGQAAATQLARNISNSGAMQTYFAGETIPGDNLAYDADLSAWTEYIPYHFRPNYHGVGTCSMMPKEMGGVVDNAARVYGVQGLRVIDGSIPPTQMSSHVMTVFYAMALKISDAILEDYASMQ

Which potential does the source give for “Capture Antibody 2, an anti-Mouse α-Human IL-8 Monoclonal Antibody (for ICC, BD Pharmingen cat #550419), conjugated to Glucose Oxidase from Aspergillus niger (from UniProt P13006 23-605)” here?
The potential was 1 to 55 mV.
